# In the Human Domainome abundance scans (Beltran et al. 2025):
# ± gives the uncertainty stated by the source.
# B1: V(D)J recombination-activating protein 2, residues 415 to 491; numbered along this chain, P55895 (parent)
# chain: YWITCCPTCDVDINTWVPFYSTELNKPAMIYCSHGDGHWVHAQCMDLAERTLIHLSAGSNKYYCNEHVEIARALHTP
# Variants of: B1
# Assay: abundance fitness (aPCA) (normalised: wild type 0, dead -1); higher = more abundant; growth selection in yeast, the domain comes from the species named
# Conditions: Homo sapiens
row,Variant,abundance fitness
1,D12F,-0.244 ± 0.38
2,D12T,-0.226 ± 0.24
3,C6K,-0.28 ± 0.16
4,C6M,-0.393 ± 0.35
5,P27H,-0.741 ± 0.5
6,P27R,-0.973 ± 0.2
7,P77R,0.152 ± 0.31
8,P77G,-0.157 ± 0.35
9,N14T,0.039 ± 0.16
10,N14R,-0.137 ± 0.2
11,C5A,-0.616 ± 0.41
12,A48G,-0.078 ± 0.076
13,A48C,-0.061 ± 0.14
14,A48P,0.037 ± 0.067
15,A48M,-0.022 ± 0.075
16,A48Q,0.105 ± 0.067
17,A48W,-0.04 ± 0.089
18,W39L,-0.097 ± 0.033
19,W39S,-0.209 ± 0.039
20,W39N,-0.274 ± 0.1
21,W39P,-0.294 ± 0.064
22,H34K,-0.211 ± 0.14
23,H34P,-0.808 ± 0.15
24,H34T,-0.234 ± 0.11

row,Variant,abundance fitness
1,H34S,-0.032 ± 0.07
2,H34Y,-0.101 ± 0.12
3,H34G,-0.007 ± 0.056
4,H75Q,0.089 ± 0.11
5,H75T,0.089 ± 0.068
6,H75V,-0.075 ± 0.08
7,H75N,0.051 ± 0.26
8,H75I,-0.003 ± 0.14
9,H75C,-0.155 ± 0.092
10,D36F,-0.217 ± 0.16
11,D36H,-0.214 ± 0.33
12,D36Y,-0.32 ± 0.41
13,D36P,-0.011 ± 0.14
14,D36G,-0.04 ± 0.17
15,D36Q,0.055 ± 0.19
16,D36N,-0.211 ± 0.23
17,D36R,-0.246 ± 0.094
18,L52D,-0.31 ± 0.18
19,L52Q,-0.006 ± 0.084
20,L52R,-0.358 ± 0.073
21,L52S,-0.262 ± 0.07
22,L52Y,-0.318 ± 0.19
23,L52N,-0.304 ± 0.28
24,L52I,-0.186 ± 0.14

row,Variant,abundance fitness
1,L52F,-0.211 ± 0.11
2,I53T,0.004 ± 0.11
3,I53E,-0.194 ± 0.13
4,I53Y,-0.133 ± 0.1
5,I53C,-0.056 ± 0.12
6,I53D,-0.184 ± 0.25
7,I53S,0.049 ± 0.086
8,C44H,-1.09 ± 0.3
9,C44A,-1.02 ± 0.13
10,C44K,-1.23 ± 0.38
11,C44P,-0.943 ± 0.12
12,C44G,-1.01 ± 0.11
13,C44R,-1.02 ± 0.1
14,C44I,-0.972 ± 0.18
15,C44D,-0.765 ± 0.17
16,C44W,-0.98 ± 0.14
17,A71L,0.027 ± 0.037
18,A71S,-0.04 ± 0.06
19,A71D,-0.038 ± 0.088
20,A71I,-0.008 ± 0.1
21,N60H,-0.084 ± 0.054
22,N60K,-0.114 ± 0.12
23,N60E,0.046 ± 0.083
24,N60V,-0.04 ± 0.068

row,Variant,abundance fitness
1,N60S,-0.062 ± 0.062
2,N60A,0.002 ± 0.069
3,N60D,0.01 ± 0.13
4,M45W,-0.431 ± 0.13
5,M45G,-0.43 ± 0.058
6,M45Y,-0.296 ± 0.21
7,M45L,-0.291 ± 0.066
8,M45I,-0.615 ± 0.098
9,M45V,-0.217 ± 0.064
10,M45H,0.058 ± 0.13
11,M45C,-0.181 ± 0.099
12,M45F,-0.231 ± 0.091
13,A73S,-0.089 ± 0.14
14,A73Y,-0.109 ± 0.17
15,I30L,0.122 ± 0.14
16,A57E,-0.03 ± 0.075
17,A57G,-0.068 ± 0.076
18,A57H,0.091 ± 0.17
19,A57S,0.048 ± 0.055
20,C32W,-0.861 ± 0.15
21,C32F,-0.946 ± 0.3
22,E66G,0.006 ± 0.054
23,E66H,-0.22 ± 0.17
24,E66R,-0.127 ± 0.058

row,Variant,abundance fitness
1,S59I,0.103 ± 0.16
2,S59K,0.053 ± 0.11
3,S59W,-0.225 ± 0.071
4,S59G,0.019 ± 0.044
5,M29S,0.208 ± 0.28
6,M29E,-0.421 ± 0.24
7,M29I,-0.234 ± 0.29
8,M29A,-0.575 ± 0.33
9,M29C,-0.532 ± 0.3
10,G37E,-0.778 ± 0.26
11,G37S,-0.839 ± 0.21
12,Q43L,-0.196 ± 0.12
13,Q43S,-0.174 ± 0.21
14,L55A,-0.108 ± 0.07
15,L55Q,0.027 ± 0.074
16,L55P,-0.218 ± 0.078
17,L55E,-0.051 ± 0.093
18,L55N,-0.062 ± 0.15
19,L55D,-0.152 ± 0.12
20,I3N,-0.053 ± 0.15
21,I3T,-0.102 ± 0.08
22,S21G,-0.108 ± 0.091
23,S21P,-0.004 ± 0.12
24,S21A,-0.187 ± 0.13

row,Variant,abundance fitness
1,S21Y,-0.027 ± 0.21
2,G58H,0.013 ± 0.16
3,G58R,-0.165 ± 0.076
4,G58Q,0.025 ± 0.092
5,G58A,-0.049 ± 0.074
6,G58E,0.041 ± 0.089
7,G58W,-0.06 ± 0.092
8,G58Y,-0.126 ± 0.11
9,G35E,0.068 ± 0.19
10,G35I,-0.07 ± 0.3
11,G35K,0.042 ± 0.28
12,F19K,-0.116 ± 0.27
13,F19S,-0.154 ± 0.29
14,H54E,0.02 ± 0.081
15,H54P,-0.007 ± 0.04
16,H54K,0.112 ± 0.13
17,H54D,0.042 ± 0.18
18,H54G,0.035 ± 0.054
19,H54V,0.008 ± 0.073
20,H38Y,-0.543 ± 0.46
21,H38N,-0.689 ± 0.42
22,T51V,-0.043 ± 0.055
23,T51L,0.016 ± 0.058
24,T51Y,-0.068 ± 0.26

row,Variant,abundance fitness
1,T51F,-0.118 ± 0.12
2,T51H,0.003 ± 0.14
3,T51R,0.034 ± 0.054
4,T51C,-0.027 ± 0.11
5,T51D,-0.042 ± 0.17
6,C64V,-0.557 ± 0.081
7,C64K,-0.842 ± 0.3
8,C64A,-1.01 ± 0.16
9,K61C,-0.098 ± 0.18
10,K61Q,0.097 ± 0.36
11,N65P,0.016 ± 0.11
12,N65L,0.008 ± 0.054
13,N65F,-0.172 ± 0.12
14,N65G,0.012 ± 0.047
15,N65R,0.079 ± 0.045
16,N65I,0.185 ± 0.13
17,N65W,0.036 ± 0.078
18,V40T,-0.427 ± 0.14
19,V40C,-0.206 ± 0.18
20,V40M,-0.092 ± 0.11
21,V40L,-0.043 ± 0.062
22,V40K,-0.316 ± 0.13
23,V40Q,-0.626 ± 0.24
